The RNAGym collection of RNA variant scans (doi:10.1093/molbev/msab373)

B1: Azoarcus group I ribozyme (parent)
chain: GUGCCUUGCGCCGGGAAACCACGCAAGGGAUGGUGUCAAAUUCGGCGAAACCUAAGCGCCCGCCCGGGCGUAUGGCAACGCCGAGCCAAGCUUCGGCGCCUGCGCCGAUGAAGGUGUAGAGACUAGACGGCACCCACCUAAGGCAAACGCUAUGGUGAAGGCAUAGUCCAGGGAGUGGCGAAAGUCACACAAACCGG

Variants of: B1
Experiment: reverse-splicing fitness (ratio to wild type); higher = more active; in vitro selection; Mg2+ level not given
Outline: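 An in vitro group I ribozyme library with randomized positions was T7-transcribed and gel-purified. In triplicate, 10 pmol RNA in EPPS pH 7.5 was reacted with 50 pmoles of a 30-nt RNA substrate for 1 h at 37 °C across several added MgCl2 levels (1–48 mM), then stopped with EDTA. Products were reverse transcribed from a substrate-complementary primer, PCR-amplified and sequenced (HiSeq 4000). Fitness is a variant's read proportion after selection over that before, normalised to wild type.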

| Variant | reverse-splicing fitness |
| --- | --- |
| C82G A111C C150G C169G U176C | 0.00598 |
| C82G A111C A145G C150G C169A U176C | 0.0129 |
| C82G A111C A145G C150G C169A U176A | 0.0115 |
| C82G A111C A145G C150G C169A U176G | 0.00829 |
| C82G A111C A145G C169G U176A | 0.0207 |
| C82G A111C A145G C169G U176C | 0.0315 |
| C82G A111C A145G C169G U176G | 0.00727 |
| C82G A111G A120C A145U C150A C169U | 0.00952 |
| C82G A111G A120C A145U C150A C169A | 0.0104 |
| C82G A111G A120C A145U C150A C169G | 0.00822 |
| C82G A111G A120C A145C U176A | 0.0266 |
| C82G A111G A120C A145C U176C | 0.035 |
| C82G A111G A120C A145C U176G | 0.00938 |
| C82G A111C A145U C150U U176C | 0.0883 |
| C82G A111C A145U C150U U176A | 0.0841 |
| C82G A111C A145U C150U U176G | 0.0297 |
| C82G A111C A145U C150G C169A U176C | 0.0126 |
| C82G A111C A145U C150G C169A U176A | 0.00956 |
| C82G A111C A145U C150G C169A U176G | 0.00734 |
| C82G A111C C150A C169A U176A | 0.0183 |
| C82G A111C C150A C169A U176G | 0.00921 |

| Variant | reverse-splicing fitness |
| --- | --- |
| C82G A111C C150A C169A U176C | 0.0158 |
| C82G A111G A120C A145C C150U U176G | 0.00724 |
| C82G A111G A120C A145C C150U U176A | 0.0141 |
| C82G A111G A120C A145C C150U U176C | 0.0167 |
| C82G A111G A120C A145G C150A C169A U176A | 0.0208 |
| C82G A111G A120C A145G C150A C169A U176G | 0.00804 |
| C82G A111G A120C A145G C150A C169A U176C | 0.0227 |
| C82G A111C C169A U176G | 0.00611 |
| C82G A111C C169A U176A | 0.0198 |
| C82G A111C C169A U176C | 0.023 |
| C82G A111G A120C A145C C150G C169G U176A | 0.0112 |
| C82G A111G A120C A145C C150G C169G U176G | 0.006 |
| C82G A111G A120C A145C C150G C169G U176C | 0.0101 |
| C82G A111C C150U C169A | 0.0113 |
| C82G A111C C150U C169G | 0.00815 |
| C82G A111C C150U C169U | 0.0125 |
| C82G A111C A145G C150A C169U U176C | 0.0161 |
| C82G A111C A145G C150A C169U U176G | 0.00863 |
| C82G A111C C150U C169A U176G | 0.00817 |
| C82G A111C C150U C169A U176C | 0.0143 |
| C82G A111C C150U C169A U176A | 0.0125 |

| Variant | reverse-splicing fitness |
| --- | --- |
| C82G A111G A120C A145C C169G | 0.00871 |
| C82G A111G A120C A145C C169U | 0.0144 |
| C82G A111G A120C A145C C169A | 0.00695 |
| C82G A111G A120C A145C C169G U176C | 0.0182 |
| C82G A111G A120C A145C C169G U176G | 0.0055 |
| C82G A111G A120C A145C C169G U176A | 0.0254 |
| C82G A111G A120C A145U C150A C169A U176G | 0.0061 |
| C82G A111G A120C A145U C150A C169A U176C | 0.0161 |
| C82G A111G A120C A145U C150A C169A U176A | 0.0183 |
| C82G A111C A145U C150G C169A | 0.00796 |
| C82G A111C A145U C150G C169G | 0.0063 |
| C82G A111C A145U C150G C169U | 0.00891 |
| C82G A111C C150G U176C | 0.0159 |
| C82G A111C C150G U176G | 0.00449 |
| C82G A111C C150G U176A | 0.00967 |
| C82G A111C A145U C150A C169G U176G | 0.0081 |
| C82G A111C A145U C150A C169G U176C | 0.0181 |
| C82G A111C A145U C150A C169G U176A | 0.0157 |
| C82G A111G A120C A145C C150U C169U U176C | 0.0121 |
| C82G A111G A120C A145C C150U C169U U176A | 0.013 |
| C82G A111G A120C A145C C150U C169U U176G | 0.00553 |

| Variant | reverse-splicing fitness |
| --- | --- |
| C82G A111G A120C A145G C150G C169U U176C | 0.0142 |
| C82G A111G A120C A145G C150G C169U U176A | 0.0118 |
| C82G A111G A120C A145G C150G C169U U176G | 0.00784 |
| C82G A111C A145G C150U U176A | 0.0896 |
| C82G A111C A145G C150U U176G | 0.0306 |
| C82G A111C A145G C150U U176C | 0.11 |
| C82G A111C A145G C150G C169G U176G | 0.00603 |
| C82G A111C A145G C150G C169G U176C | 0.0117 |
| C82G A111C A145G C150G C169G U176A | 0.00869 |
| C82G A111G A120C A145G C150U C169G U176C | 0.0192 |
| C82G A111G A120C A145G C150U C169G U176G | 0.00597 |
| C82G A111G A120C A145G C150U C169G U176A | 0.0174 |
| C82G A111C A145G C169A U176C | 0.0311 |
| C82G A111C A145G C169A U176G | 0.00852 |
| C82G A111C A145G C169A U176A | 0.0222 |
| C82G A111G A120C A145G C169G U176A | 0.0158 |
| C82G A111G A120C A145G C169G U176G | 0.00476 |
| C82G A111G A120C A145G C169G U176C | 0.0188 |
| C82G A111C A145G C150U C169A U176A | 0.0153 |
| C82G A111C A145G C150U C169A U176G | 0.00789 |
| C82G A111C A145G C150U C169A U176C | 0.0146 |
